T1: human progastrin (full length, recombinant, produced in E. coli, tag removed) (human)
T1 construct: also called hPG; PG
T1 chain: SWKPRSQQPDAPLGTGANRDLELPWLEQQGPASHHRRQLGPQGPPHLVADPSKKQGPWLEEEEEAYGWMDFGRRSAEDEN


Target: T1, human progastrin (full length, …)
Test: epitope mapping (details not given)

| Binder | binding result |
| --- | --- |
| mAb13 (hybridoma 2C6C3C7) (antibody, V domains shown, Murine variable domains (mVH 13 / mVL 13)) VH: EVQLVESGGGLVQPGGSLKLSCAASGFIFSSYGMSWVRQSPDRRLELVASINTFGDRTYYPDSVKGRFTISRDNAKNTLYLQMTSLKSEDTAIYYCARGTGTYWGQGTTLTVSS VL: not shown | binds |
| mAb4 (hybridoma 20D2C3G2) (antibody, V domains shown, Murine variable domains (mVH 4 / mVL 4)) VH: QVQLQQSGAELMKPGASVKISCKATGYTFSSSWIEWLKQRPGHGLEWIGEFLPGSGSTDYNEKFKGKATFTADTSSDTAYMLLSSLTSEDSAVYYCATDGNYDWFAYWGQGTLVTVSA VL: DLVMTQTPLSLPVSLGDQASISCRSSQSLVHSSGVTYLHWYLQKPGQSPKLLIYKVSNRFSGVPDRFSGSGSGTDFTLKISRVEAEDLGVYFCSQSTHVPPTFGSGTKLEIK | binds |
| mAb16 (hybridoma 1E9D9B6) (antibody, V domains shown, Murine variable domains (mVH 16 / mVL 16)) VH: QVQLQQSGAELVKPGASVKLSCKASGYTFTSYYMYWVKQRPGQGLEWIGEINPSNGGTNFNEKFKSKATLTVDKSSSTAYMQLSSLTSEDSAVYYCTRGGYYPFDYWGQGTTLTVSS VL: not shown | binds |
| mAb3 (hybridoma 6B51311C10) (antibody, V domains shown, Murine variable domains (mVH 3 / mVL 3) of the hybridoma antibody) VH: EVQLQQSGTVLARPGASVKMSCKASGYIFTSYWVHWVKQRPGQGLEWIGGFYPGNSDSRYNQKFKGKATLTAVTSASTAYMDLSSLTNEDSAVYFCTRRDSPQYWGQGTTLTVSS VL: DVLMTQTPLSLPVSLGDQASISCRSSQSIVHSNGNTYLEWYLQKPGQSPKLLIYKVSNRFSGVPDRFSGSGSGTDFTLKISRLEAEDLGVYYCFQGSHVPFTFGGGTKLEIK | binds |
